Data reported in patent US20190352359A1 (IMMATICS BIOTECHNOLOGIES, published 2019).

Biological target: T1, HLA-A*24
T1 construct: Monomers captured on streptavidin plates; also called peptide-receptive MHC molecules; MHC complexes
Test: UV peptide-exchange ELISA (anti-b2m); yield grade ++++ = >75%
Description: Candidate peptides for T cell based therapies according to the present invention were further tested for their MHC binding capacity (affinity). The individual peptide-MHC complexes were produced by UV-ligand exchange, where a UV-sensitive peptide is cleaved upon UV-irradiation, and exchanged with the peptide of interest as analyzed. Only peptide candidates that can effectively bind and stabilize the peptide-receptive MHC molecules prevent dissociation of the MHC complexes. To determine the yield of the exchange reaction, an ELISA was performed based on the detection of the light chain (p2m) of stabilized MHC complexes. The assay was performed as generally described in Rodenko et al. (Rodenko et al., 2006)
96 well MAXISorp plates (NUNC) were coated over night with 2 ug/ml streptavidin in PBS at room temperature, washed 4× and blocked for 1 h at 37° C. in 2% BSA containing blocking buffer. Refolded HLA-A*02:01/MLA-001 monomers served as standards, covering the range of 15-500 ng/ml. Peptide-MHC monomers of the UV-exchange reaction were diluted 100-fold in blocking buffer. Samples were incubated for 1 h at 37° C., washed four times, incubated with 2 ug/ml HRP conjugated anti-β2m for 1h at 37° C., washed again and detected with TMB solution that is stopped with […]. Absorption was measured at 450 nm. Candidate peptides that show a high exchange yield (preferably higher than 50%, most preferred higher than 75%) are generally preferred for a generation and production of antibodies or fragments thereof, and/or T cell receptors or fragments thereof, as they show sufficient avidity to the MHC molecules and prevent dissociation of the MHC complexes.

Row | Binder | peptide exchange yield
1 | KMGRIVDYF (also called KMGRIVDYF) [GABRP-003] | > 75%
2 | KYNRQSMTL (also called KYNRQSMTL) [APOB-080] | > 75%
3 | TYETVMTFF (also called TYETVMTFF) [BTBD16-003] | > 75%
4 | RFLDRGWGF (also called RFLDRGWGF) [ADAMTS12-005] | > 75%
5 | RYILEPFFI (also called RYILEPFFI) [SLC7A11-007] | > 75%
6 | AAFISVPLLI (also called AAFISVPLLI) [TAS2R38-002] | > 75%
7 | AFISVPLLI (also called AFISVPLLI) [TAS2R38-003] | > 75%
8 | IQNAILHLF (also called IQNAILHLF) [OR51B5-001] | > 75%
9 | FYPEVELNF (also called FYPEVELNF) [MMP1-009] | > 75%
10 | IFMENAFEL (also called IFMENAFEL) [APOB-079] | > 75%
11 | VYDYIPLLL (also called VYDYIPLLL) [MROH2A-005] | > 75%
12 | EVYQKIILKF (also called EVYQKIILKF) [PASD-001] | > 75%
13 | VYTVGHNLI (also called VYTVGHNLI) [KLB-003] | > 75%
14 | SFISPRYSWLF (also called SFISPRYSWLF) [SPNS3-005] | > 75%
15 | FYQPDLKYLSF (also called FYQPDLKYLSF) [NLRP4-003] | > 75%
16 | NYSPVTGKF (also called NYSPVTGKF) [OTOL-001] | > 75%
17 | IFMGAVPTL (also called IFMGAVPTL) [LPAR3-001] | > 75%
18 | VHMKDFFYF (also called VHMKDFFYF) [DYRK4-001] | > 75%
19 | KWKPSPLLF (also called KWKPSPLLF) [GPR126-002] | > 75%
20 | IYLVGGYSW (also called IYLVGGYSW) [KLHL14-007] | > 75%
21 | DYIQMIPEL (also called DYIQMIPEL) [RTL-002] | > 75%
22 | EYIDEFQSL (also called EYIDEFQSL) [RTL-003] | > 75%
23 | VYCSLDKSQF (also called VYCSLDKSQF) [RTL-004] | > 75%

Row | Binder | peptide exchange yield
24 | RYADLLIYTY (also called RYADLLIYTY) [MYO3B-005] | > 75%
25 | KFLTHDVLTELF (also called KFLTHDVLTELF) [TRPM8-009] | > 75%
26 | RYQSVIYPF (also called RYQSVIYPF) [AGTR2-002] | > 75%
27 | VYSDLHAFY (also called VYSDLHAFY) [MANEAL-004] | > 75%
28 | VYLTWLPGL (also called VYLTWLPGL) [IFNLR-001] | > 75%
29 | RYENVSILF (also called RYENVSILF) [ADCY8-001] | > 75%
30 | MYGIVIRTI (also called MYGIVIRTI) [NPSR-001] | > 75%
31 | EYQQYHPSL (also called EYQQYHPSL) [CLEC4C-001] | > 75%
32 | RYLEEHTEF (also called RYLEEHTEF) [MROH2A-003] | > 75%
33 | TYIDFVPYI (also called TYIDFVPYI) [TEX15-001] | > 75%
34 | IYMTTGVLL (also called IYMTTGVLL) [TDRD9-002] | > 75%
35 | VYKWTEEKF (also called VYKWTEEKF) [TSPE-001] | > 75%
36 | GYFGTASLF (also called GYFGTASLF) [SLC16A14-001] | > 75%
37 | QYIPTFHVY (also called QYIPTFHVY) [SLC44A5-003] | > 75%
38 | VYLASVAAF (also called VYLASVAAF) [SLC45A3-006] | > 75%
39 | VYNNNSSRF (also called VYNNNSSRF) [MYO10-003] | > 75%
40 | IYANVTEMLL (also called IYANVTEMLL) [CYP27C-001] | > 75%
41 | LYITKVTTI (also called LYITKVTTI) [FSTL4-002] | > 75%
42 | NYMDTDNLMF (also called NYMDTDNLMF) [LOC1001246-002] | > 75%
43 | QYGFNYNKF (also called QYGFNYNKF) [PNLD-002] | > 75%
44 | HWSHITHLF (also called HWSHITHLF) [DPY19L1-003] | > 75%
45 | AYFVAMHLF (also called AYFVAMHLF) [TENM4-007] | > 75%
46 | NFYLFPTTF (also called NFYLFPTTF) [PNLD-001] | > 75%

Row | Binder | peptide exchange yield
47 | LYHNWRHAF (also called LYHNWRHAF) [PDE11-002] | > 75%
48 | YYAADQWVF (also called YYAADQWVF) [CCR4-004] | > 75%
49 | KYVGEVFNI (also called KYVGEVFNI) [DMXL1-001] | > 75%
50 | RYAHTLVTSVLF (also called RYAHTLVTSVLF) [ITIH6-003] | > 75%
51 | VYAVISNIL (also called VYAVISNIL) [TNR-003] | > 75%
52 | KLPTEWNVL (also called KLPTEWNVL) [AKAP13-005] | > 75%
53 | FYIRRLPMF (also called FYIRRLPMF) [CHRNA6-001] | > 75%
54 | IYTDITYSF (also called IYTDITYSF) [CHRNA6-002] | > 75%
55 | SYPKELMKF (also called SYPKELMKF) [MROH2A-004] | > 75%
56 | PYFSPSASF (also called PYFSPSASF) [SPER-001] | > 75%
57 | GYFGNPQKF (also called GYFGNPQKF) [LAMA3-002] | > 75%
58 | YQSRDYYNF (also called YQSRDYYNF) [AR-002] | > 75%
59 | NYPEGAAYEF (also called NYPEGAAYEF) [ESR1-008] | > 75%
60 | IYFATQVVF (also called IYFATQVVF) [SLC45A3-004] | > 75%
61 | VYDSIWCNM (also called VYDSIWCNM) [SCGB2A1-001] | > 75%
62 | KYKDHFTEI (also called KYKDHFTEI) [MAGEB1-001] | > 75%
63 | LQPQPQLFFSF (also called LQPQPQLFFSF) [POT-002] | > 75%
64 | FYHEDMPLW (also called FYHEDMPLW) [FCRL5-004] | > 75%
65 | SYLWTDNLQEF (also called SYLWTDNLQEF) [DNAH17-003] | > 75%
66 | AWSPPATLFLF (also called AWSPPATLFLF) [LOXL4-003] | > 75%
67 | QYLSIAERAEF (also called QYLSIAERAEF) [MSX-001] | > 75%
